According to article PMC6955223, “The adaptor proteins HAP1a and GRIP1 collaborate to activate the kinesin-1 isoform KIF5C” (Journal of Cell Science, 2019):

Target: T1, KIF5C–Halo (UniProt P28738 1-956, HaloTag TMR ligand on the HaloTag)
T1 construct: kinesin-1 heavy chain KIF5C; construct from Twelvetrees et al., 2016; also called KIF5C labelled with HaloTag TMR ligand; motor; source: COS cells, transfected, in lysate
T1 sequence (looked up): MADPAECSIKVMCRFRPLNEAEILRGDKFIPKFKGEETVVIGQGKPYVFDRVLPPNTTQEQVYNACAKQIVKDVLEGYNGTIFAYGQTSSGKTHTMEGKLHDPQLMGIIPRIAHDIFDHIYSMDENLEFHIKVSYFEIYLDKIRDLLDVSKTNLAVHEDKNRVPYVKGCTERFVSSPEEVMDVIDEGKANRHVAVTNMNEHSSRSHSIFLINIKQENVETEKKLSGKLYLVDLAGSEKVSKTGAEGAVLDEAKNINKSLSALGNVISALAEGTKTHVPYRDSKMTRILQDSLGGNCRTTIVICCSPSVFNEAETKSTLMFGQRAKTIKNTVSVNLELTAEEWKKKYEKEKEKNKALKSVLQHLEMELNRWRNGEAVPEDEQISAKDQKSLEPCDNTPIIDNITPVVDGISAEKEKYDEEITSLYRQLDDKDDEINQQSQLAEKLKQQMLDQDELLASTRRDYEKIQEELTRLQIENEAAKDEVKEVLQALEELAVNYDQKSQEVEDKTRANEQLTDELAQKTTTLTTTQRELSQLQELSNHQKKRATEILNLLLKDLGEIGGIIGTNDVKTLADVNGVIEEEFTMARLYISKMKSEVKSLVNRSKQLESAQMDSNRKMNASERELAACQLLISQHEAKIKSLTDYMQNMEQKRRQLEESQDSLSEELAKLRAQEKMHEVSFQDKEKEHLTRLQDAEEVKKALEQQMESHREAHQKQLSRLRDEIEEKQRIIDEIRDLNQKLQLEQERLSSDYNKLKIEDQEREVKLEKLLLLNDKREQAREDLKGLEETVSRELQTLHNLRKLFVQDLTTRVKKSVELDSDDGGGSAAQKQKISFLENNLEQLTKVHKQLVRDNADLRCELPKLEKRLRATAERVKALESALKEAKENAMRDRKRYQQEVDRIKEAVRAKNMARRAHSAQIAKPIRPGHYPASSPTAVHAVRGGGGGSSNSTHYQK
Assay: counting of GFP photobleaching steps (TIRFM); motor–adaptor complexes from mixed cell lysates immobilised on microtubules with 15 mM AMP-PNP instead of ATP; GFP-labelled HAP1a and GRIP1 both present; bleaching steps counted for each spot
Details: partners not purified

stoichiometry N: 2 HAP1a molecules per motor
B1: GFP-labelled HAP1a (natural protein, rat, UniProt P54256-2 1-599, looked up)
chain: MRPKDQVQSSAGDGTGSGDPATGTPTTQPAADPAPEPSAEPKPAPAQGTGSGQKSGSRTKTGGSFCRSRIRGDSDAPWTRYIFQGPYGPRATGLGTGRAEGIWKTPAAYIGRRPGVSGPERAAFIRELQEALCPNPLPRKKITEDDIKVMLYLLEEKERDLNTAARIGQSLVKQNSVLMEENNKLETMLGSAREEILHLRKQVNLRDDLLQLYSDSDDDEEDEEDEEEEEGEEEEREGQRDQDQQHDHPYGAPKPPPKAETLHHCPQLEALKQKLKLLEEENDHLREEASHLDNLEDKEQMLILECVEQFSEASQQMAELSEVLVLRLEGYERQQKEITQLQAEITKLQQRCQSYGAQTEKLQQQLASEKGVHPESLRAGSHMQDYGSRPRERQEDGKSHRQRSSMPAGSVTHYGYSVPLDALPSFPETLAEELRTSLRKFITDPAYFMERCDTRCREERKKEQGTMPPPPVQDLKPPEDFEAPEELVPEEELGAIEEVGTAEDGPAEETEQASEETEAWEEVEPEVDEATRMNVVVSALEASGLGPSHLDMKYVLQQLSNWQDAHSKRQQKQKVVPKGECSRRGHPPASGTSYRSSTL
notes: huntingtin-associated protein 1, rodent isoform HAP1a; Construct not described in the methods; named only in the sentence on photobleaching; source: cell lysate (COS cells as for the motility assay)
